# Results taken from the nanobody polyreactivity screen of Harvey et al. (2022).
# Assay: yeast display, Sf9 membrane polyspecificity reagent, FACS + sequencing; frameworks hold sequencing errors
# Procedure, shortened: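 Nanobodies from a synthetic yeast display library (Saccharomyces cerevisiae BJ5465), induced 36–48 hours with galactose, were stained 1 hour at 4 °C with 10% biotinylated, detergent-solubilized Sf9 membrane reagent, enriched on streptavidin microbeads, then FACS-sorted. Anti-HA (expression) and streptavidin (reagent binding) fluorescence set low and high (top ~1%) gates. Polyreactivity labels come from the gate of origin. Genes were colony-PCR amplified, MiSeq 2 × 250 sequenced and filtered by CDR length.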
row,Sequence,polyreactivity (PSR sort gate)
1,QVQLVESGGGLVQAGGSLRLSCPASGYTFYKNAMGWYRQPPGKERELVAAISYSGGRTYYADSVKGRFTISRDNAKNTVYLQMNSLKPEDTAVYYCAKATRVITDDGSYGYWGQGSQVTVSS,high polyreactivity
2,QVQLVESGGGLVQAGGSLRLSCPASVLILVYYAMGWYRQAPGKERELVAAINPGGSTKYADSVKGRFTISRDNAKNTVYLQMNSLKQEDTEVYYCNADGEGADSDYDYWGQGTKVTVSS,low polyreactivity
3,QVQLVESGGGLVQAGGSLRLSCPAYGYTILPNAMGWYRQAPGKEREFVAAISYSGGRTYYADSVKGRFTISRDNAKNTVYLQMNSLKPEDTAVYYCATELYGYRYDYWGQGTQVTVSS,low polyreactivity
4,QVQLVESGGGLVQAGGSLRLSCPPSGTFSFYAMGWYRQAPGKERELVATIRSGGRTYYADSVKGRFTISRDNAKNTVYLQMNSLKPEDTAVYYCAAASTKLSGSDYDYWGQGTQVTVSS,high polyreactivity
5,QVQLVESGGGLVQAGGSLRLSCSASGFIFGPNAMGWYRQAPGKEMELVAAISWMGSSTYYADSVKGRFTISRDNANNTVYLQMNSLKPEDTAVYYCAADSSERRLLDFDYWGQGTNVTVSS,low polyreactivity
6,QVQLVESGGGLVQAGGSLRLSCSASGFIFPRYTMGWYRQAPGKERELVAGITLRGGSTYYADSVKGRFTISRDNAKNTVYLQMNSLKPDDTAVYYCARGISRGRSFGIGYDYWGQGTQVTVSS,low polyreactivity
7,QVQLVESGGGLVQAGGSLRLSCSASGFTFRYYTMGWYRQAPGKERELVAAISRSSGSRTYYADSVKGRFTISRDNAKNTVYLQMNSLKPEDTAVYYCNADPAYQFDYWGQGTQVTVSS,high polyreactivity
8,QVQLVESGGGLVQAGGSLRLSCSASGFTFYRNAMGWYRQAPGKERELVASISRSGGSTYYADSVKGRFTISRDNAKNTVYLQMNSLKPEDTAVYYCAADLCWIYPHKYYYWGQGTQVTVSS,high polyreactivity
9,QVQLVESGGGLVQAGGSLRLSCSASGGTFEFYTMGWYRQAPGKERELVAAISWSGSSTYYADSVKGRFTISRDNAKNTVYLQMNSLKPEDTAVYYCAAYPRPYIGYTDGYVWYEFDYWGQGTQVTVSS,low polyreactivity
10,QVQLVESGGGLVQAGGSLRLSCSASGIIFSTYAKGWYRQAPGKERELVAAITSTGSTNYADSVKGRFTISRDNAKNTVYLQLNSLKPEDTAVYYCAARYAGPSPTDTGHDYWGQGTQVTVSS,low polyreactivity
11,QVQLVESGGGLVQAGGSLRLSCSASGLTFKENAMGWYRQAPGTERELVAAISKGGGSTFYADSVKGRFTISRDNAKNTVYLQMNTLKPEDTAVYYCNADVGYRGGEEDYWGQGTQVTVSS,low polyreactivity
12,QVQLVESGGGLVQAGGSLRLSCSASGLTFNFNAMGWYRQAPGKERELVAAISYRAGSTYYADSVKGRFTISRDNAKNTVYLQMNSLKPEDTAVYYCAADGYYYVKSGTYWSDYWGQGTQVTVSS,low polyreactivity
13,QVQLVESGGGLVQAGGSLRLSCSASGNTIRYYALGWYRQAPGKERELVATITSGGRTYYADSVKGRFTISRDNAKNTVYLQMNSLKPEDTAVYYCAAGSRSDARRYYYWGQGTQVTVSS,low polyreactivity
14,QVQLVESGGGLVQAGGSLRLSCSASGRIFGRYAMGWYRQAPGKERELVAAISASGGSTYYADSVKGRFTISRDNAKNTVYLQMNSLKPEDTAVYYCAADAPAEYYWGQGTQVSVSS,low polyreactivity
15,QVQLVESGGGLVQAGGSLRLSCSASGRIFRFYGMGWYRQAPGKDRELVAAISSRGGSTYYADSVKGRFTISRDNAKNTVYLQMNSLKPEDSGVYYCAASGAFWYPYDYWGQGTQVTVSS,high polyreactivity
16,QVQLVESGGGLVQAGGSLRLSCSASGRIISFYVMGWYRQAPGKDRELVAAISLSGGSTYYADSVKGRFTISRDNAKNTVYLQMNSLKPEDTAVYYCAADQTLVGLPYNYWGQGTQLTVSS,high polyreactivity
17,QVQLVESGGGLVQAGGSLRLSCSASGRNFKYYAMGWYRKAPGKERELVAAITSTGGSTYYADSVKGRFTISRDNGKNTVYLQLNSLKPEDTAVYYCNRDTQYRDRSDNHWGQGTQVTVSS,high polyreactivity
18,QVQLVESGGGLVQAGGSLRLSCSASGRTFGGNAMGWSRPAPGKERELVAAIARSGGTTYYADSVKGRFTISRDNAKNTVYLQMNSLKPEDTAVYYCNTRRYGAMYYWGQGTQVTVSS,high polyreactivity
19,QVQLVESGGGLVQAGGSLRLSCSASGRTFHYYAMGWYRQAPGKERELVAVIRYSGGRTYYADSVKGRFTISRDNAKNTVYLQMNSLKPEDTAVYYCNKGRWRTDQPVYLIAFDYWGQGTQVTVTS,low polyreactivity
20,QVQLVESGGGLVQAGGSLRLSCSASGRTFSAYAMGWDRPAPGKERELVARITSVDSTNYADSVKGRFTISRDNAKNSVYLKMNSLTPEDTAVYYCNATFCYPFFDYDDYWGQGTQVTVSS,low polyreactivity
21,QVQLVESGGGLVQAGGSLRLSCSASGRTFYEYAMGWYIQAPGKERELVAGITSGGSTNYADSVKGRFTISRDNAKNTVYLQMNSLKPEDTAVYYCAATYWGYEYDYWGQGTQVTVSS,low polyreactivity

row,Sequence,polyreactivity (PSR sort gate)
1,QVQLVESGGGLVQAGGSLRLSCSASGSIFGIYTMGWYRQAPGKERELVAAINSGGSTNYADSVKGRFTISRDNAKNTVYLQMNSLKPEDTAVYYCAAGGSSSWAFNYWGQGTQVTVSS,low polyreactivity
2,QVQLVESGGGLVQAGGSLRLSCSASGSIFLYYTMGWYRQEPGKERELVAAITWSGASTYYADSVKGRFTISRDNGKITVYLQMNSLKPEDTAVYYCATRYRYRYCGQGTQVTVSS,high polyreactivity
3,QVQLVESGGGLVQAGGSLRLSCSASGSIFPTYAMGWYRKAPGKERELVAAIRSGSNTYYADSVKGRFTISRDNAKNTVYLQMNSLKPEDTAVYYCNKATNLSGGYDSWGQGTQVTVSS,low polyreactivity
4,QVQLVESGGGLVQAGGSLRLSCSASGSIFRFNAKGWYRQAPGKERELVASSRWDTASTYYADSVKGRFTISRDNAKNTVYLQMNSLKPEDTAVYYCNAGRPRFYRSRWYYYGYGYWGQGTQVTVSS,high polyreactivity
5,QVQLVESGGGLVQAGGSLRLSCSASGSIFRYYAMGWYRQPPGKEREFVASITYRGGRTYYADSVKGRFTISRDNAKKTVYLQMNSLKPEDTAVYYCAARTRAGAWTSKYHDYWGEGTQVTVSS,high polyreactivity
6,QVQLVESGGGLVQAGGSLRLSCSASGSIFSHYVMGWYRQAPGKERELVAAISPSGDSTYYADSVKGRFTISRDNAKNTVYLQMNSLKPEDTAVYYCNAGFGQYRYRGHDDYWGQGTQVTVSS,high polyreactivity
7,QVQLVESGGGLVQAGGSLRLSCSASGSIFWYNAMGWYRHAPGKERELVAAISRSGSRTYYADSVKGRFTISRDYAKNTVYLQMNSLKPEDTAVYYCARVRPRVLYFVLHYDYWGQGTQVTVSS,high polyreactivity
8,QVQLVESGGGLVQAGGSLRLSCSASGSIFYTYAMGWYRQAPGKERELVAAISRSGGITYYADSVKGRFTISRDNAKNTVYLEMNSLKPEDTAVYFCNVASASPGRYDYWGQGTQVTLSS,high polyreactivity
9,QVQLVESGGGLVQAGGSLRLSCSASGSISYYNAMAWYRQAPGKERELVASITRRGGTTNYAESVKGRFSISRDNAKHTVYLQMNSLKPEDTAVYNCNAEYPYWTPDYNYRFDYWGQGTQVTVSS,high polyreactivity
10,QVQLVESGGGLVQAGGSLRLSCSASGSTFGQYAMGWYRHAPGKERELVAAISRGGGSTYYADSVKGRFTISRDNAKYTVYLQMNSLKPEDTAVYYCNALSARSYYWGQGTQVTVSS,high polyreactivity
11,QVQLVESGGGLVQAGGSLRLSCSASGSTFHPYAMGWYRQAPGKERELVAAINSGDNTYYADSVKGRFTITRDNAKNTVYLQMNSLKPEDTAVYYCAVRYWDESHTEYDYWGQGTQVTVSS,low polyreactivity
12,QVQLVESGGGLVQAGGSLRLSCSASGSTFPSNAMGWYRQAPGKERELVAAIRGRGGSTYYADSVKGRFTISRDNAKNTVYLQMNSLKPEDTAVYYCAKKVRSYVRWEYDYWGQGTQVTVSS,low polyreactivity
13,QVQLVESGGGLVQAGGSLRLSCSASGSTFSRYAMGWYRQAPGKEREFVAAISQRGGSTYYADSVKGRFTISRDNAKNTVYLQMNSLKPEDTAVYYCAARRVPQLDDYWGQGTQVTVSS,high polyreactivity
14,QVQLVESGGGLVQAGGSLRLSCSASGSTIRDYAMGWYRQAPGKERELVAVIDNSGGRTYYADSVKGRFTISRDNAKNTVYLQMNSLKPEDTAVYYCNTRRIAQYGYWGQGTEVTVSS,high polyreactivity
15,QVQLVESGGGLVQAGGSLRLSCSASGTFYGYAMAWSRQAPGKERELVASSTWGGGRTYYADSVKGRFTTSRDNAKNTVYLQMNSLKPEDTAVYYCATRSRPQYNKYDYWGQGTQVTVSS,high polyreactivity
16,QVQLVESGGGLVQAGGSLRLSCSASGTTFRGYAMGWYRQAPGKEREVVAAISNNGVTTYYADSVKGRFTISRDNAKNTVYLQMNSLKPEDAAVYYCAAGLYHGFAASDEIRGDYWGLGTQVTVSS,low polyreactivity
17,QVQLVESGGGLVQAGGSLRLSCSATGNTLDVNARGWYRQAPGKERELVAAITSGGSTNYADSVKVRFTISRDNAKNTVYLQMNSLKPEDTAVYYCAATAALGRPEYYWGQGSQVTVSS,low polyreactivity
18,QVQLVESGGGLVQAGGSLRLSCTASGFTFFSNAMGWYRQAPVKEREFVASISRSGGRTYYADSVKGRFTISRDNEKNTVYLQMNSLKPEDTAVYYCAADVPYYLHNPRYGYWGQGTQVTVSS,high polyreactivity
19,QVQLVESGGGLVQAGGSLRLSCTASGIIFGTFAMGWYRQAPGKERELVAAISSSGVSTYYADSVKGRFTISRDNAKNTVYLQMNSLKPEDTAVYYCAAPLHYGYYYWGQGTQVTVSS,high polyreactivity
20,QVQLVESGGGLVQAGGSLRLSCTASGRIFTRNAMGWYRQAPGKERELVASISRTGTSTYYADSVKGRFTISRDNEKNNVYLQMNSLKPEDTAVYYFNARRTSVRFDYWGQGTQVTVSS,high polyreactivity
